In general, % Inhibition refers to the drop in the measured response relative to a control, in per cent.

% Inhibition, PlGF-1 Measured and RLU data for three molecules are collected here from patent US20100015637A1 (AbbVie / Abbott, published 2010).

The target of assay [1] is human PlGF-1 comprising amino acids 1-137 produced in human embryonic kidney cells (human) (UniProt P49763). Nature of the assay: Format 1 …, capture 2-826-335, detection 1-255-713; sFlt-1 307 pmol/L (ratio 10).
Assay [2] has the same target. Nature of the assay: Format 1 …, capture 2-826-335, detection 1-255-713; sFlt-1 2300 pmol/L (ratio 75).
Assay [3] shares this target. Nature of the assay: Format 3 Quantikine ELISA, capture MAb264, detection Pb264; sFlt-1 613 pmol/L (ratio 20). In general terms: An ELISA detects its analyte on a solid surface through an enzyme-linked reagent.
Assay [4] has the same target. Nature of the assay: Format 3 Quantikine ELISA, capture MAb264, detection Pb264; sFlt-1 1533 pmol/L (ratio 50).
For assay [5] the target is unchanged. Nature of the assay: Format 2 …, capture MAb264, detection Pb264; sFlt-1 307 pmol/L (ratio 10).
Assay [6] has the same target. The assay is described as follows: Format 3 Quantikine ELISA, capture MAb264, detection Pb264; sFlt-1 307 pmol/L (ratio 10).
Assay [7] deals with T1, human PlGF-1 comprising amino acids 1-137 produced in human embryonic kidney cells (human, UniProt P49763 19-221).
T1 construct: Mature human PlGF-1 with 6xHis tag; also called HEK (1-137); full length HEK human PlGF-1 (1-137)
T1 sequence: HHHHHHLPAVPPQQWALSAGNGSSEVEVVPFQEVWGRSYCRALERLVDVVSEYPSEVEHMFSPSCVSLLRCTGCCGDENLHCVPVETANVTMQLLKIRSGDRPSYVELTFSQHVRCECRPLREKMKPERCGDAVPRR
Nature of the assay: … sandwich, capture MAb255, detection pAb264; antigen 0 pg/mL (blank).

Assay [8] concerns the target T2, human PlGF-1 fragment (comprising amino acids 17-131) produced in human embryonic kidney cells (human, UniProt P49763 35-221).
T2 sequence: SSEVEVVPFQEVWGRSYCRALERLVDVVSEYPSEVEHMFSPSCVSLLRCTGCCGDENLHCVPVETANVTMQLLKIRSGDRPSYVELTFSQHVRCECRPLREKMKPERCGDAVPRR
The assay is described as above.

Assay [9] deals with T3, CHO human PlGF-1 comprising amino acids 1-137 (human PlGF-1-His (1-131), CHO 6305) (human, UniProt P49763 19-221, N-glycans at N21 (completely glycosylated) and N89 (partially glycosylated)).
T3 construct: Mature human PlGF-1 with 6xHis tag (137 amino acids); also called CHO (1-137)
T3 sequence: T1 sequence
Described as above.

Assay [10] has as its target T4, CHO human PlGF-1 fragment (comprising amino acids 17-131; ATCC PTA-8540) (human, UniProt P49763 35-221).
T4 sequence: T2 sequence
The assay is described as above.

Assay [11] deals with T1, human PlGF-1 comprising amino acids …. The assay is described as follows: … sandwich, capture MAb255, detection MAb826; antigen 60 pg/mL. The gist of the method: (§1)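 Values are chemiluminescent relative light units (RLU) from a sandwich immunoassay of human PlGF-1 antigen preparations, some of them recombinant forms made in CHO cells. Antigen levels ran from 0 to 1500 pg/mL. Capture was by a monoclonal anti-human PlGF-1 antibody bound to magnetic microparticles, and detection was by an acridinium ester-labeled monoclonal anti-human PlGF-1 antibody.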

For assay [12], the target named is T2, human PlGF-1 fragment (comprising amino …). The description is as above. In a few lines: as §1
The target of assay [13] is T4, CHO human PlGF-1 fragment (comprising …). The assay is described as above. The gist of the method: as §1
The target in assay [14] is recombinant human PlGF-1 (comprising amino acids 1-131) expressed in E. coli (R&D Systems) (human) (UniProt P49763). Nature of the assay: … sandwich, capture MAb255, detection MAb826; antigen 1500 pg/mL.
Assay [15] addresses T1, human PlGF-1 comprising amino acids …. Nature of the assay: … sandwich, capture MAb826, detection pAb264; antigen 15 pg/mL.
Assay [16] addresses T2, human PlGF-1 fragment (comprising amino …). The assay is described as above.
The target in assay [17] is T3, CHO human PlGF-1 comprising amino acids …. The assay is described as above.
Assay [18] addresses T4, CHO human PlGF-1 fragment (comprising …). The assay is described as above.
Assay [19] deals with recombinant human PlGF-1 (comprising amino acids 1-131) expressed in E. coli (R&D Systems) (human) (UniProt P49763). The assay is described as follows: … sandwich, capture MAb826, detection pAb264; antigen 0 pg/mL (blank).

In the case of “native sFlt-1, isolated from human placental tissue (from UniProt P17948 27-687) (receptor)”, the % Inhibition worked out at 80.7% in assay [1]; 93.6% in assay [2]; 40.4% in assay [3]; 52.1% in [4]; 81.8% in assay [5]; 32.6% in assay [6]. In addition, the PlGF-1 Measured in assay [1] came to 197 pg/mL; in [2] it was 65 pg/mL; in assay [3] it was 515 pg/mL; in assay [4], 415 pg/mL; in assay [5] it was 143 pg/mL; in assay [6], 583 pg/mL.

B1: monoclonal antibody 1-255-713 (produced by murine hybridoma cell line 1-255-713, ATCC PTA-8536) (antibody, mouse IgG2a, V domains shown)
VH: QVHLQQSGAELMKPGASVKISCKATGYTFSSYWIEWVKQRPGHGLEWIGEILPGSVSNNFNEKFKDKATLTADPSSNTAYIQVSSLTSEDSAVYYCARSTGFYYGGNYFDHWGQGTTLAVSS
VL: DVVMTQTPLSLPVSPGDQASISCRSSQSLVHSNGHTYLHWYLQKPGQSPKLLIYKVSNRFSGVPDRVSGSGSGTDFTLKISRVEAEDLGVYFCSQSTHVPPTFGGGTKLEIKR
notes: also called MAb255
For the molecule B1, the RLU in [7] is 14200 RLU; in assay [8], 14200 RLU; in assay [9], 14500 RLU; in assay [10], 14400 RLU; in assay [11] it was 101000 RLU; in assay [12], 57900 RLU. Further, the RLU in assay [13] stood at 42100 RLU; in assay [14], 1.35e+06 RLU.

B2: monoclonal antibody 2-826-335 (produced by murine hybridoma cell line 2-826-335, ATCC PTA-8539) (antibody, mouse IgG1, V domains shown)
VH: QVQLKQSGPGLVQPSQSLSITCTVSGFSLTTYGIHWVRQSPGKGLEWLGVMWSGGDTDYDAAFISRLSISKDNSKSQVFFKMNSLQANDTGIYYCARYRFYGMDYWGQGTSVTVSS
VL: AIQMTQSSSSFSVSLGDRVTITCKASEDIYNRFAWYQQKPGNAPRLLISGAASLEAGVPSRFSGSGSGQDYTLSITSLQTEDVATYYCQQYWSTPWTFGGGTKLEIKR
notes: also called MAb826
Regarding B2, the RLU amounted to 15500 RLU in assay [15]; 12800 RLU in assay [16]; 10100 RLU in [17]; 11200 RLU in assay [18]; 6410 RLU in assay [19].
